The values that follow come from patent US20080145369A1.

Assay [1] deals with PCDGF receptor on breast cancer cells (MCF-7; AG-BC1). Briefly: PCDGF binding to AG-BC1 cells against MCF-7 cells; method not stated.
The target of assay [2] is PCDGF cell surface receptors on the mink lung epithelial cell line CCL64 (mink). Briefly: Scatchard analysis of 125I-PCDGF binding to CCL64 cells, low affinity class.
The target is the same in assay [3]. In words: Scatchard analysis of 125I-PCDGF binding to CCL64 cells, high affinity class.

The term Kd denotes the free concentration of one partner at which half of the binding sites on the other are occupied at equilibrium, for simple one-to-one binding. For the substance “PC-cell-derived growth factor (PCDGF) (ligand)”, the fold increase in binding against MCF-7 cells in assay [1] turned out to be 10 fold. Besides, the Kd was found to be 3.9 nM in assay [2] and 0.043 nM in assay [3].
